Assay results taken from publication PMC4795942 (Protein Engineering, Design and Selection, 2016).
Positions count from the first letter of the chain named. In names and notes the source's numbering stands.

Biological target: biotinylated MmQSOX1Trx with a carboxy-terminal AviTag (Mus musculus, UniProt Q8BND5, biotin (on the AviTag))
Test: flow cytometry on cells

B1: scFv492.1 template c with H49S S50M Y52Q (top binder of the CDR L2 library) displayed on yeast (scFv, V domains shown)
VH: QVQLKQSGPGLVAPSQSLSITCTVSGFSLTGYGVNWVRQSPGKGLEWLGMIWGDGRTEYKSALKSRLSITKDNSKSQVFLKMNSLQTDDTARYFCASDSKDPGSFAYWGQGTLVTVSA
VL: DVVMTQTHKFMSTSVGDRVSITCKASQDVSTAVAWYQQKSGQSPKLLISMASQRYTGVPDRFTGSGSGTDFTFTISSVQAEDLAVYYCQQHYAIPLTFGAGTKLELK
Question: Does B1 bind?
Answer: Result: binds

B2: scFv492.1 S93A Y99S Y100K G101D S102P D58E T31G H49S S50M Y52Q (mutant d) displayed on yeast (scFv, V domains shown)
VH: B1 VH
VL: B1 VL with T31G
Question: Does B2 bind?
Answer: Result: binds
